According to patent US20030228663A1:

Target: HER2 extracellular domain (HER2-ECD) (human) (UniProt P04626)
Assay: SPR (BIAcore 2000 or 3000), Fab over immobilized HER2-ECD, 37 °C, KD = koff/kon

## hu4D5-8 Fab M.7 (N30(VL)S+H91(VL)F+Y92(VL)W+T94(VL)S+D98(VH)W+Y100a(VH)F+Y102(VH)V)
  Kd: 0.38 nM
